{
  "source": "patent US11384130B2",
  "about": "“Agent for promoting angiogenesis and methods and uses thereof” (Vasomune Therapeutics Inc., priority 2017, dated 2022)",
  "molecules": {"B1": {"name": "human recombinant Ang1: human recombinant angiopoietin 1 (R&D Systems), positive control for Tie2 and MAPK activation (protein, UniProt Q15389 16-498, looked up)", "Angiopoietin-1": "HIGCSNQRRSPENSGRRYNRIQHGQCAYTFILPEHDGNCRESTTDQYNTNALQRDAPHVEPDFSSQKLQHLEHVMENYTQWLQKLENYIVENMKSEMAQIQQNAVQNHTATMLEIGTSLLSQTAEQTRKLTDVETQVLNQTSRLEIQLLENSLSTYKLEKQLLQQTNEILKIHEKNSLLEHKILEMEGKHKEELDTLKEEKENLQGLVTRQTYIIQELEKQLNRATTNNSVLQKQQLELMDTVHNLVNLCTKEGVLLKGGKREEEKPFRDCADVYQAGFNKSGIYTIYINNMPEPKKVFCNMDVNGGGWTVIQHREDGSLDFQRGWKEYKMGFGNPSGEYWLGNEFIFAITSQRQYMLRIELMDWEGNRAYSQYDRFHIGNEKQNYRLYLKGHTGTAGKQSSLILHGADFSTKDADNDNCMCKCALMLTGGWWFDACGPSNLNGMFYTAGQNHGKLNGIKWHYFKGPSYSLRSTTMMIRPLDF"}},
  "type_in_all_cases": "cell-based",
  "details_in_all_cases": "positive control",
  "key": {"Tie2 receptor [1]": {"target": "T1, Tie2 receptor (Rattus norvegicus, UniProt A0A8I5ZW61)", "T1 construct": "host or cells: primary rat glomerular endothelial cells", "T1 sequence (A0A8I5ZW61 20-1121)": "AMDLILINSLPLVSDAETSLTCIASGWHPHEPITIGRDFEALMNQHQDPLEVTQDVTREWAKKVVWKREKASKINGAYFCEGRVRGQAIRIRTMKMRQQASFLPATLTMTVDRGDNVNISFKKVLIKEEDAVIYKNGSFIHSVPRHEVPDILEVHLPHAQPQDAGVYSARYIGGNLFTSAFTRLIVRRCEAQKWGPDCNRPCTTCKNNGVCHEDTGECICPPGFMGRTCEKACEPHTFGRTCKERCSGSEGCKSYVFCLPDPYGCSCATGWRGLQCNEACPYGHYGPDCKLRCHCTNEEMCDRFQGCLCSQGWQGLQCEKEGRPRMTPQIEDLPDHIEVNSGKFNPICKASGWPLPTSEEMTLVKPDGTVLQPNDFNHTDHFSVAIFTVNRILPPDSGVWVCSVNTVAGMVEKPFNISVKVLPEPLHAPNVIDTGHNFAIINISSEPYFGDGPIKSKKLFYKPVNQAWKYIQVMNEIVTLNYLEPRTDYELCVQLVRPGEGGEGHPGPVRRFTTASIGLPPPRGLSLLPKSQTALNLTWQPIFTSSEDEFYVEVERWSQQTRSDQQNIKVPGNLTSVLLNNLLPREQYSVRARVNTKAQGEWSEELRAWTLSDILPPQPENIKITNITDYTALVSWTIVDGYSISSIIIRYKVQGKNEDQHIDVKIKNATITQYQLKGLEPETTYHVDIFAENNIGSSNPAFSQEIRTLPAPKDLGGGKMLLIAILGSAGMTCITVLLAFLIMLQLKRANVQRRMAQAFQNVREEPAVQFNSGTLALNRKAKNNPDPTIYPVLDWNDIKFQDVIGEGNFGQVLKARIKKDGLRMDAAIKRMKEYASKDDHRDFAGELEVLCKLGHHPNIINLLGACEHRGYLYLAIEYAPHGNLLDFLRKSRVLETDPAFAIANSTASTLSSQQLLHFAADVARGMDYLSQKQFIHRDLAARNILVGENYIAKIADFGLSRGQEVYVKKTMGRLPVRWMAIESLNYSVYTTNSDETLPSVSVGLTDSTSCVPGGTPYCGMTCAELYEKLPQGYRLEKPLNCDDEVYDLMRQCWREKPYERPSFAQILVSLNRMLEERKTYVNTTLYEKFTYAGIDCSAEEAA", "assay": "Tie2 phosphorylation in primary rat glomerular endothelial cells", "method": "Rat primary glomerular endothelial cells (Cell Biologics) were grown in Complete rat endothelial cell medium/w kit (Cell Biologics) in 20% O2, 5% CO2 and 37° C. humidified chamber and split 1:3 once reaching 80-90% confluency. To examine the activation of Tie2 by MPA-Br in rat kidney glomerular endothelial cells, 95-100% confluent cells were stimulated with indicated concentrations of the test agent in serum-containing media for 15 minutes. Human Ang-1 (R&D Systems) was used as positive control. Cell lysates were collected using lysis buffer IC12 (detailed above) recommended in Human phospho-Tie-2 ELISA kit (R&D Systems), tyrosine-phosphorylated Tie2 and total Tie2 were measured using ELISA (Human phospho-Tie2 and total-Tie2 ELISA kits, R&D Systems) with substitution of capture antibody validated for rat Tie2. Mouse anti-Tie2 antibody (BD Pharmingen™) and rabbit TEK polyclonal antibody (MyBioSource) were used as capture antibody in pTie2 and total Tie2 ELISA, respectively. The level of Tie2 phosphorylation for all treatment groups was then normalized to that of the no treatment group (NT, complete rat endothelial cell medium) in each experiment."}, "Tie2 receptor [2]": {"target": "T2, Tie2 receptor (Canis lupus familiaris, UniProt A0A8I3P3D4)", "T2 construct": "primary cultured endothelial cells derived from canine aorta; host or cells: primary canine aortic endothelial cells", "T2 sequence (A0A8I3P3D4 entry or part of it)": "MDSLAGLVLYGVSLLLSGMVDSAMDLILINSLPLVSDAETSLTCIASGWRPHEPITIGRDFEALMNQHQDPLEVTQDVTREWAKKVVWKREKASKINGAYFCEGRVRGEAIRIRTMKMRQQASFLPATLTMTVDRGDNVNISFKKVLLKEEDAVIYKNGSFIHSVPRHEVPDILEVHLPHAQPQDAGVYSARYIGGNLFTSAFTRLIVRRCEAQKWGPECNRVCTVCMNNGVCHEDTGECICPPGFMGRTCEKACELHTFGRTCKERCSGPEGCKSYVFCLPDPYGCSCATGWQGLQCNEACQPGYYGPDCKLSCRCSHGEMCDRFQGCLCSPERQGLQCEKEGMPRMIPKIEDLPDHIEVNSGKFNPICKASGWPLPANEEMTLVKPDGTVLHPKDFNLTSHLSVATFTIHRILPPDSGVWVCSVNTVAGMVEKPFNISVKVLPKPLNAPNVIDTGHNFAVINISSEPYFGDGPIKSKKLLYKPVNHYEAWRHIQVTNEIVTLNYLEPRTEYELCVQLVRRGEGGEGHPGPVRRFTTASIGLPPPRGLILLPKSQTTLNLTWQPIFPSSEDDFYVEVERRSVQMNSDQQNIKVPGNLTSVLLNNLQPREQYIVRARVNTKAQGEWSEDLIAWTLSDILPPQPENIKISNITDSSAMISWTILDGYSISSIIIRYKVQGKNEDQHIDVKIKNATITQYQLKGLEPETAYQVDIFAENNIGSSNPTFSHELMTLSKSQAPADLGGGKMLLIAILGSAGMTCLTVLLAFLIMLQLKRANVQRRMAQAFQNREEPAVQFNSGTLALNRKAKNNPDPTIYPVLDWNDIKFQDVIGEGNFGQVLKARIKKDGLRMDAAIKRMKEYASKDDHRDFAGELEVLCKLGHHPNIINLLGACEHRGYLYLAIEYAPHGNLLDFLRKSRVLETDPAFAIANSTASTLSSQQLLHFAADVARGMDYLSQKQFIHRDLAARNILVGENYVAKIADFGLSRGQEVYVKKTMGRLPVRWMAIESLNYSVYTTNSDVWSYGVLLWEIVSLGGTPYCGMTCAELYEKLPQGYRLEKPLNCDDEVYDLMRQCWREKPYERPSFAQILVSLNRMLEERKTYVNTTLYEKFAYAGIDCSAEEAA", "assay": "Tie2 phosphorylation in primary canine aortic endothelial cells", "method": "Canine primary aortic endothelial cells (Cell Biologics) were grown in Complete canine endothelial cell medium/w kit (Cell Biologics) in 20% O2, 5% CO2 and 37° C. humidified chamber and split 1:3 once reaching 80-90% confluency. Tie2 activation studies performed on primary cynomolgus monkey glomerular endothelial cells were performed according to approaches detailed above for the rat primary glomerular endothelial cell studies."}, "Tie2 receptor [3]": {"tested_on": "Tie2 receptor", "assay": "Tie2 phosphorylation in primary cynomolgus monkey glomerular endothelial cells", "method": "Primary cynomolgus monkey glomerular endothelial cells (Cell Biologics) were cultured according to details provided above for HMVEC^tert. Tie2 activation studies performed on primary cynomolgus monkey glomerular endothelial cells were performed according to approaches detailed above for the rat primary glomerular endothelial cell studies."}},
  "data": [
    {"molecule": "B1", "values": [
      {"measurement": "Tie2 phosphorylation compared to no treatment", "setting": "Tie2 receptor [1]", "value": "significant increase in baseline Tie2 phosphorylation"},
      {"measurement": "Tie2 phosphorylation compared to no treatment", "setting": "Tie2 receptor [2]", "value": "significant increase in baseline Tie2 phosphorylation"},
      {"measurement": "Tie2 phosphorylation compared to no treatment", "setting": "Tie2 receptor [3]", "value": "significant increase in baseline Tie2 phosphorylation"}
    ]}
  ]
}
